Results on two molecules are retold here after patent US20260028418A1 (GC CELL, published 2026).

Assay [1] deals with T1, HER2-ECD-Fc (human, UniProt P04626 23-652).
T1 construct: extracellular domain; Produced in FreeStyle 293F cells; also called HER2-ECD Fc fusion protein
In words: ELISA on HER2-ECD-Fc; antibody at 5 × 10^-3 µg/mL. A general note: An ELISA detects its analyte on a solid surface through an enzyme-linked reagent.

Assay [2] concerns the target T1, HER2-ECD-Fc. Briefly: ELISA on HER2-ECD-Fc; antibody at 5 × 10^-2 µg/mL.
Assay [3] addresses T1, HER2-ECD-Fc. In words: ELISA on HER2-ECD-Fc; antibody at 5 × 10^-4 µg/mL.
Assay [4] addresses T1, HER2-ECD-Fc. In words: ELISA on HER2-ECD-Fc; antibody at 5 × 10^-7 µg/mL.
The target in assay [5] is T1, HER2-ECD-Fc. Briefly: ELISA on HER2-ECD-Fc; antibody at 5 × 10^-5 µg/mL.
Assay [6] addresses T1, HER2-ECD-Fc. Briefly: ELISA on HER2-ECD-Fc; antibody at 50 µg/mL.
Assay [7] concerns the target T1, HER2-ECD-Fc. In words: ELISA on HER2-ECD-Fc; antibody at 5 × 10^-6 µg/mL.
Assay [8] addresses T2, HER2-ECD DI Fc (human, UniProt P04626 23-217, limits assumed).
T2 construct: domain: domain 1; also called domain 1 of the extracellular domains of the HER2 protein; not shown: Hinge and Fc region (CH2-CH3) of human IgG1, at the C-terminus
In words: ELISA on plate-coated HER2 domain-Fc fusion (1 µg/mL), anti-human IgG-HRP, Abs 450 nm; antibody concentration not given. Here is the method:
(§1) The HER2-ECD DI Fc, HER2-ECD DII Fc, HER2-ECD DIII Fc, HER2-ECD DIV Fc and HER2-ECD Fc fusion proteins were immobilized at 4° C. overnight onto a Costar 96-well plate (Corning, Cat. No. 3590) at a concentration of 1 μg/mL […]. The resultant was washed 3 times with TBS-T (0.05% Triton X-100) and then blocked at room temperature for 1 hour with 100 μL of TBS-T/BSA (5% BSA). After washing the blocked plate 3 times and adding the anti-HER2 antibody, the antibody was allowed to bind at room temperature for 1 hour. After washing 3 times and then adding anti-human IgG-HRP diluted to 1:3,000 in TBS-T/BSA, as a secondary antibody, the antibody was allowed to bind at room temperature for 1 hour. After washing the resultant 3 times and adding TMB (SurModics, Cat. No. TMBC-1000-01), the mixture was allowed to develop color at room temperature for 5 minutes. Then, the color development was stopped by adding 1 N sulfuric acid (DukSan, Cat. No. 254). Absorbance was measured at 450 nm using Victor X3 (PerkinElmer, Cat. No. 2030-0030).

Assay [9] deals with T3, HER2-ECD DIII Fc (human, UniProt P04626 342-510, limits assumed).
T3 construct: domain: domain 3; also called domain 3 of the extracellular domains of the HER2 protein; not shown: Hinge and Fc region (CH2-CH3) of human IgG1, at the C-terminus
The description is as above. Here is the method: as §1

The target of assay [10] is T1, HER2-ECD-Fc. Briefly: ELISA on HER2-ECD-Fc; antibody at 5 µg/mL.
Assay [11] addresses T1, HER2-ECD-Fc. In words: ELISA on HER2-ECD-Fc; antibody at 5 × 10^-1 µg/mL.
Assay [12] concerns the target T4, EGFR-ECD-Fc (human, UniProt P00533 25-645).
T4 construct: extracellular domain; also called extracellular domain of EGFR; not shown: Hinge and Fc region (CH2-CH3) of human IgG1; The protein was produced in the same manner as HER2-ECD-Fc
In words: ELISA on ErbB family extracellular domains, Absorbance at 450 nm; antibody concentration not given. The text has this: (§2) It was investigated whether the developed five antibodies of the present disclosure specifically bind to HER2 belonging to the ErbB family proteins by ELISA.

For assay [13], the target named is T5, HER4 (R&D Systems, #1131-ER-050) (human, UniProt Q15303 26-651).
T5 construct: extracellular domain; Bought
T5 sequence (looked up): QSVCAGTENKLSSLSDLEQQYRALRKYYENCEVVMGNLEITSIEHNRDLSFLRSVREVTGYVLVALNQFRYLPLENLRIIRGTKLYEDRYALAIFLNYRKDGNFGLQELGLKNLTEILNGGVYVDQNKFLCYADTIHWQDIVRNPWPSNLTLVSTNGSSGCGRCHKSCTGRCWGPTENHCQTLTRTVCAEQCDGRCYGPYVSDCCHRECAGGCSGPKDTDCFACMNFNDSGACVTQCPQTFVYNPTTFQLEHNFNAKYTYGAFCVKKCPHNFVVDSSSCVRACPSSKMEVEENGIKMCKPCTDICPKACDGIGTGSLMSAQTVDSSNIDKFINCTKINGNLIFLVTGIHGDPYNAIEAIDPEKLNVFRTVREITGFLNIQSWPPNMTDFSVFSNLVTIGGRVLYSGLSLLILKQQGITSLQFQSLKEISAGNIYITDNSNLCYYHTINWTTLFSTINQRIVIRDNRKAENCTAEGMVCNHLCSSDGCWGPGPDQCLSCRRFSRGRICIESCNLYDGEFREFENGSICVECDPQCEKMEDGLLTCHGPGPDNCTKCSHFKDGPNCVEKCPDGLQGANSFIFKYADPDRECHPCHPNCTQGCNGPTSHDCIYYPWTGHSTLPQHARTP
The assay is described as above.
Excerpt: as §2

For assay [14], the target named is T6, HER3 (R&D Systems, #348-RB-050) (human, UniProt P21860 20-643).
T6 construct: extracellular domain; Bought
The assay is described as above.
Excerpt: as §2

B1: hz8G11 (antibody, V domains shown)
VH: QVQLVQSGQEVKKPGASVKVSCKASGYSFTGYYMHWVRQAPGQGLEWIGHINPNNGGTSYNQKFKGRTTLTVDKSISTAYMELSRLRSDDTAVYYCAREEAFAYWGQGTLVTVSS
VL: DIQMTQSPSSLSASVGDRVTISCRASQDISNYLNWYQQKPGKAPKLLIYYTSRLHSGVPSRFSGSGSGTDFSLTISSLQPEDIATYYCQQGITPPWTFGGGTKVEIK
notes: Humanized antibody, detected with anti-human IgG-HRP; also called humanized 8G11 antibody
Regarding B1, the absorbance in [1] came out at 1.67; in assay [2] it was 2.72; in [3] it was 0.34; in assay [4] it was 0.12; in [5] it was 0.14; in assay [6], 2.74. The absorbance in assay [7] was found to be 0.12; in assay [10] it was 2.9; in assay [11], 2.94. For the same molecule, the binding result in [8], in [9], in assay [12], in assay [13] and in [14] was “no binding” throughout.

B2: 1G3 (antibody, V domains shown)
VH: EVQLQQSGAELVKPGASVKLSCTASDFNIVDTYMHWVKQRPEQGLEWIGRIDPANGYTRYDPNFQGKATITADTSSNTAYLQLSSLTSEDTAVYYCARYYYGFYAMDYWGQGTTVTVSS
VL: DIVMTQSHKFMSTSVGDRVSITCKASQDVSTAVAWYQQKPGQSPKLLIYSASYRYTGVPDRFTGSGSGTDFTFTISSVQAEDLAVYYCQQHYSTPPTFGGGTKLELK
On to B2, for which the absorbance in assay [1] stood at 1.77; in [2], 2.79; in assay [3] it was 0.35; in assay [4] it was 0.11; in [5], 0.14; in [6], 2.76. In addition, the absorbance in assay [7] is 0.11; in [10], 2.81; in assay [11], 2.78. Also, the binding result in assay [8], in [9], in assay [12], in assay [13] and in assay [14] was “no binding” in each case.
